Test results published in patent US20030099644A1.

Molecular target: CD40 on murine bone cells (MLO-Y4 osteocyte cell line, primary osteoblasts, MC3T3, OCT-1 and 2T3 osteoblast cell lines) (mouse) (UniProt P27512)
Assay: cell-based or functional assay

Chain of UniProt P27512 (P27512 20-289): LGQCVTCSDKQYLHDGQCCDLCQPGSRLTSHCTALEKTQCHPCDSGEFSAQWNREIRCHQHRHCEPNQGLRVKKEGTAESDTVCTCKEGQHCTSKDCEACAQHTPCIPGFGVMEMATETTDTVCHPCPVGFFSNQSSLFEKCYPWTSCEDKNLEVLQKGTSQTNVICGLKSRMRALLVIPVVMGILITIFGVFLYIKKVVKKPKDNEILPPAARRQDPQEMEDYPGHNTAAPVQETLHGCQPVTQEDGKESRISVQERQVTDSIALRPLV

percent positive cells, Annexin V (MLO-Y4 cells, CD40L alone) (percent positive cells): 11.5
percent positive cells, Annexin V (MLO-Y4 cells, Dex + CD40L) (percent positive cells): 13.7
percent positive cells, Annexin V (MLO-Y4 cells, TNF + CD40L) (percent positive cells): 13.9
percent positive cells, GFP (MLO-Y4 cells, CD40L alone) (percent positive cells): 8.7
percent positive cells, GFP (MLO-Y4 cells, Dex + CD40L) (percent positive cells): 9.9
percent positive cells, GFP (MLO-Y4 cells, Etoposide + CD40L) (percent positive cells): 8.4
percent positive cells, GFP (MLO-Y4 cells, TNF + CD40L) (percent positive cells): 15
percent positive cells, Trypan Blue (MLO-Y4 cells, CD40L alone) (percent positive cells): 7.2
percent positive cells, Trypan Blue (MLO-Y4 cells, Dex + CD40L) (percent positive cells): 7.8
percent positive cells, Trypan Blue (MLO-Y4 cells, Etoposide + CD40L) (percent positive cells): 7.9
percent positive cells, Trypan Blue (MLO-Y4 cells, TNF + CD40L) (percent positive cells): 12.9
Substance: Soluble, trimeric CD40L (ligand)
